The test system of data set [1] is lentiviral SARS-CoV-2 pseudoparticles. Type of data set: cell-based.
Data set [2] relates to Covid-19. On the set-up: species or system patients. As to conditions: in vivo.
In data set [3] the test system is protease-mediated entry of SARS-CoV-2. The following applies: in vitro; cited from earlier work.
In data set [4] the target is TMPRSS2 of Caco2 cells (UniProt O15393). Briefly: cell-based or functional assay.
Data set [5] deals with PEDV. As to conditions: pretreatment, Vero-E6 cells; cited from earlier work.
Data set [6] deals with Main Protease of coronaviruses. The following applies: enzymatical assays; cited from earlier work.
The subject of data set [7] is SARS-CoV-2. The following applies: pretreatment, Vero-E6 cells; cited from earlier work.
The target in data set [8] is TMPRSS2 of Caco2 cells (UniProt O15393 1-492). Briefly: cell-based or functional assay.
In data set [9] the target is T1, recombinant human TMPRSS2 (Homo sapiens, UniProt O15393).
T1 construct: purchased LSBio LS-G57269
The experiment in a line: TMPRSS2 activity assay (fluorogenic reporter peptide substrate). Type of data set: biochemical. The following applies: dose-dependent; read-out: IC50 of TMPRSS2 proteolytic activity. The protocol: The respective protease (TMPRSS2 or neutrophil elastase) is mixed with a serial dilution of rhAAT, camostat mesylate or Prolastin resulting in the formation of a complex between the test compound and the protease. Subsequently, a fluorogenic reporter peptide substrate is added. Upon cleavage of the reporter peptide substrate by the protease, a fluorescent dye is set free.
For assessing the activity of recombinant human TMPRSS2, 25 μl of serially diluted Prolastin, camostat mesylate or rhAAT is incubated with 25 μl of 2 μg/ml recombinant TMPRSS2 enzyme (LSBio #LS-G57269) in assay buffer (50 mM Tris-HCL, […] NaCl pH 8.0) for 15 min at 37° C. Next, 50 μl of 20 μM BOC-Gln-Ala-Arg-AMC protease substrate (Bachem #4017019) is added and incubated for 2 h at 37° C. Fluorescence intensity is measured after 2 h at an excitation wavelength of 380 nm and emission wavelength of 460 nm in a Synergy™ H1 microplate reader (BioTek) with Gen5 3.04 software. The assay is performed in a 96 well plate with flat bottom.

Data set [10] deals with Caco-2 cells. The following applies: in the tested concentrations.
The test system of data set [11] is SARS-CoV-2. Type of data set: cell-based.

Entries after “also recorded” stand apart in the source; their conditions may differ. Where a name gives a salt, the structure may show the parent alone.

Chain of TMPRSS2 of Caco2 cells (UniProt O15393) (O15393 whole entry): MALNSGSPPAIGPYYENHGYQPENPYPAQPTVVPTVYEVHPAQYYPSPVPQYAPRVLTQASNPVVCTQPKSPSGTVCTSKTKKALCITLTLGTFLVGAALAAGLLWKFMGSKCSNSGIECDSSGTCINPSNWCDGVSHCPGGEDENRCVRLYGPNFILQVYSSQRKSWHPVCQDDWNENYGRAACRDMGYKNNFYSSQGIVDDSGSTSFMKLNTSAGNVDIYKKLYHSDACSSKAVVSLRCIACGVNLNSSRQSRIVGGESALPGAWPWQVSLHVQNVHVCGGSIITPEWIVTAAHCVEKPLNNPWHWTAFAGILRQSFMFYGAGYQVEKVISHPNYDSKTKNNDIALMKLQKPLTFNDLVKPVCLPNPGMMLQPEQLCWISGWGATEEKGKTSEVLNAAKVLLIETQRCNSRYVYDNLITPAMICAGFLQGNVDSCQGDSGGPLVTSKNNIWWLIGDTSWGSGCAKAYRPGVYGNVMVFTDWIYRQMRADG
Chain of TMPRSS2 of Caco2 cells (UniProt O15393 1-492) (O15393 whole entry): as above
T1 sequence (O15393 whole entry): as above

As for `CN(C)C(=O)COC(=O)Cc1ccc(OC(=O)c2ccc(NC(=N)N)cc2)cc1` [camostat mesylate, reference compound], in data set [1], the “inhibition of the entry of SARS-CoV-2 pseudoparticles” value is given as “inhibits the entry of SARS-CoV-2”.
Consider Prolastin, for which, in data set [1], the “inhibition of the entry of SARS-CoV-2 pseudoparticles” value was “inhibits the entry of SARS-CoV-2”. Moreover, in [2], the Covid-19 rapid tests result is on record as “negative” and the symptoms entry is listed as “no symptoms”.
Turning to AAT, in data set [3], the “restriction of protease-mediated entry of SARS-CoV-2” value is “potently restricts”. Further, in data set [2], the “Covid-19 PCR test” value is “negative” and the symptoms result is given as “significantly improved; also recorded: no symptoms”.
On to “Prolastin: human serum derived AAT (from UniProt P01009 25-418)”, for which, in [4], the IC50 of inhibiting pseudoparticle entry into Caco2 cells (Prolastin) was determined as 3160 µg/mL and the estimated IC90 of pseudoparticle entry into Caco2 cells, derived from FIG. 4 is 20000 µg/mL.
Turning to `COc1cc(O)c(CC=C(C)C)c(O)c1C(=O)/C=C/c1ccc(O)cc1` [Xanthohumol], in data set [5], the PEDV replication entry was “restricted”. In [6], the “inhibition of protease activities” value is given as “inhibited protease activities”. Further, the SARS-CoV-2 replication entry in data set [7] is reported as “restricted”.

B1: rec α1AT from supernatant of Pichia pastoris X33, anion exchange fractions 52 and 53 (other)
chain: EDPQGDAAQKTDTSHHDQDHPTFNKITPNLAEFAFSLYRQLAHQSNSTNIFFSPVSIATAFAMLSLGTKADTHDEILEGLNFNLTEIPEAQIHEGFQELLRTLNQPDSQLQLTTGNGLFLSEGLKLVDKFLEDVKKLYHSEAFTVNFGDTEEAKKQINDYVEKGTQGKIVDLVKELDRDTVFALVNYIFFKGKWERPFEVKDATEEEDFHVDQVTTVKVPMMKRLGMFNIQHCKKLSSWVLLMKYLGNATAIFFLPDEGKLQHLENELTHDIITKFLENEDRRSASLHLPKLSITGTYDLKSVLGQLGITKVFSNGADLSGVTEEAPLKLSKAVHKAVLTIDEKGTEAAGAMFLEAIPMSIPPEVKFNKPFVFLMIEQNTKSPLFMGKVVNPTQK
Turning to B1, in data set [8], the “IC50 of inhibiting pseudoparticle entry into Caco2 cells (rec α1AT Fraction 52)” value worked out at 3060 µg/mL and the “IC50 of inhibiting pseudoparticle entry into Caco2 cells (rec α1AT Fraction 53)” value is 3960 µg/mL.

B2: rhAAT (protein)
chain: B1 chain
On to B2, for which the concentration for half-maximal inhibition (IC50) (as a rule, the concentration that inhibits the measured activity by half) in data set [9] is roughly 0.35 µM. Moreover, in [1], the “inhibition of the entry of SARS-CoV-2 pseudoparticles” value is “inhibits the entry of SARS-CoV-2 similar to Prolastin and camostat mesylate”; the pseudoparticle entry result is given as “almost no pseudoparticle entry”. For the same molecule, the “toxicity for Caco-2 cells” value in data set [10] was “nontoxic”. In addition, in data set [11], the SARS-CoV-2 spike expression entry was “less detectable than Prolastin treated HAECs”, the “inhibition of SARS-CoV-2 replication” value is given as “more effectively than Prolastin” and the viral titer result was “reduce viral titer”.
